Data: paper doi:10.1101/2022.05.07.491039 (bioRxiv, 2022)
Substitutions are numbered along the chain they refer to.

B1: Mouse E-cadherin cytoplasmic domain (domain or fragment)
chain: not shown
B2: β-catenin (natural protein)
chain: MATQADLMELDMAMEPDRKAAVSHWQQQSYLDSGIHSGATTTAPSLSGKGNPEEEDVDTSQVLYEWEQGFSQSFTQEQVADIDGQYAMTRAQRVRAAMFPETLDEGMQIPSTQFDAAHPTNVQRLAEPSQMLKHAVVNLINYQDDAELATRAIPELTKLLNDEDQVVVNKAAVMVHQLSKKEASRHAIMRSPQMVSAIVRTMQNTNDVETARCTAGTLHNLSHHREGLLAIFKSGGIPALVKMLGSPVDSVLFYAITTLHNLLLHQEGAKMAVRLAGGLQKMVALLNKTNVKFLAITTDCLQILAYGNQESKLIILASGGPQALVNIMRTYTYEKLLWTTSRVLKVLSVCSSNKPAIVEAGGMQALGLHLTDPSQRLVQNCLWTLRNLSDAATKQEGMEGLLGTLVQLLGSDDINVVTCAAGILSNLTCNNYKNKMMVCQVGGIEALVRTVLRAGDREDITEPAICALRHLTSRHQEAEMAQNAVRLHYGLPVVVKLLHPPSHWPLIKATVGLIRNLALCPANHAPLREQGAIPRLVQLLVRAHQDTQRRTSMGGTQQQFVEGVRMEEIVEGCTGALHILARDVHNRIVIRGLNTIPLFVQLLYSPIENIQRVAAGVLCELAQDKEAAEAIEAEGATAPLTELLHSRNEGVATYAAAVLFRMSEDKPQDYKKRLSVELTSSLFRTEPMAWNETADLGLDIGAQGEALGYRQDDPSYRSFHSGGYGQDALGMDPMMEHEMGGHHPGADYPVDGLPDLGHAQDLMDGLPPGDSNQLAWFDTDL
B3: β-catenin 78-671 (domain or fragment)
chain: QVADIDGQYAMTRAQRVRAAMFPETLDEGMQIPSTQFDAAHPTNVQRLAEPSQMLKHAVVNLINYQDDAELATRAIPELTKLLNDEDQVVVNKAAVMVHQLSKKEASRHAIMRSPQMVSAIVRTMQNTNDVETARCTAGTLHNLSHHREGLLAIFKSGGIPALVKMLGSPVDSVLFYAITTLHNLLLHQEGAKMAVRLAGGLQKMVALLNKTNVKFLAITTDCLQILAYGNQESKLIILASGGPQALVNIMRTYTYEKLLWTTSRVLKVLSVCSSNKPAIVEAGGMQALGLHLTDPSQRLVQNCLWTLRNLSDAATKQEGMEGLLGTLVQLLGSDDINVVTCAAGILSNLTCNNYKNKMMVCQVGGIEALVRTVLRAGDREDITEPAICALRHLTSRHQEAEMAQNAVRLHYGLPVVVKLLHPPSHWPLIKATVGLIRNLALCPANHAPLREQGAIPRLVQLLVRAHQDTQRRTSMGGTQQQFVEGVRMEEIVEGCTGALHILARDVHNRIVIRGLNTIPLFVQLLYSPIENIQRVAAGVLCELAQDKEAAEAIEAEGATAPLTELLHSRNEGVATYAAAVLFRMSEDKPQDYK
B4: chicken vinculin D1 domain (aa 1-259) (domain or fragment)
chain: MPVFHTRTIESILEPVAQQISHLVIMHEEGEVDGKAIPDLTAPVSAVQAAVSNLVRVGKETVQTTEDQILKRDMPPAFIKVENACTKLVRAAQMLQADPYSVPARDYLIDGSRGILSGTSDLLLTFDEAEVRKIIRVCKGILEYLTVAEVVETMEDLVTYTKNLGPGMTKMAKMIDERQQELTHQEHRVMLVNSMNTVKELLPVLISAMKIFVTTKNTKSQGIEEALKNRNFTVEKMSAEINEIIRVLQLTSWDEDAWA

Tests used:
Experiment in all cases: SEC
β-catenin = target: B2
[1] = target: T1, full-length murine αE-catenin (mouse, UniProt P26231 1-906)
T1 sequence: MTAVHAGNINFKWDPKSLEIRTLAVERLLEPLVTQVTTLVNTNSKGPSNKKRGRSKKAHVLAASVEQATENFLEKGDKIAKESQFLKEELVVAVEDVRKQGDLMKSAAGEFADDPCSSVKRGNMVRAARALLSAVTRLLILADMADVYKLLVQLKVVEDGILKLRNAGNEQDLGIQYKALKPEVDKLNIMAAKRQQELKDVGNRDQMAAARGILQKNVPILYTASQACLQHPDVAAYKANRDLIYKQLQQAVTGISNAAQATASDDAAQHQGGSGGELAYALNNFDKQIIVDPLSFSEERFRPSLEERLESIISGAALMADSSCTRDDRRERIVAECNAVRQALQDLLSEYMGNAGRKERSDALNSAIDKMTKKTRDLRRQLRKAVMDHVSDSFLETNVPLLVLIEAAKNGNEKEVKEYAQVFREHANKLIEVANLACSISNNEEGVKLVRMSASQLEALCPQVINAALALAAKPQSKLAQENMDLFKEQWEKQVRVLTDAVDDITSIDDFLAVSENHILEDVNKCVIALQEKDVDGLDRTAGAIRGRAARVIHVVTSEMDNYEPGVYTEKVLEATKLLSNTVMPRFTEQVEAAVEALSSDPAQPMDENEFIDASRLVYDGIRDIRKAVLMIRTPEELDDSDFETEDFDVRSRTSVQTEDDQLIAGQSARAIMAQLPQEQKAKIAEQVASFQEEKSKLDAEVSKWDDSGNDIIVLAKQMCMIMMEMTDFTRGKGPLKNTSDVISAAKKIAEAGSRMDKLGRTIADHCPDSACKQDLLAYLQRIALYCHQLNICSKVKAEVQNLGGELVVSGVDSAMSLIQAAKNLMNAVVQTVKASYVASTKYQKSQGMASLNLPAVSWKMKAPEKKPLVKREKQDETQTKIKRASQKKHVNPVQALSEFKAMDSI

αE-catenin R551A = target: T2, αE-catenin R551A (mouse, UniProt P26231 1-906, R551A)
T2 sequence: T1 sequence with R551A

Row | Binder | binding result (β-catenin) | binding result [1] | binding result (αE-catenin R551A)
1 | B1 | binds |  | 
2 | B2 |  | binds | binds
3 | B3 |  | binds | 
4 | B4 |  |  | binds
